Data from patent publication US20110020842.

Test system: T1, peptide TRPM7p (Ac-RKKYRIVWKSIFRRFL)
T1 sequence: RKKYRIVWKSIFRRFL

## TRPM7 kinase
  fold increase in activity as compared to peptide MH-U: 30 to 35 fold increase in activity
  phosphorylation at a single substrate concentration (100 µM): both peptides are efficiently phosphorylated by their respective kinases
